Assay results reported in article PMC6656774, “Functional importance of the oligomer formation of the cyanobacterial H^+ pump Gloeobacter rhodopsin” (Scientific Reports, 2019).
Where two headings read alike, the source gives them in different places.

What was measured:
[1] = target: T1, Asp121 (UniProt position 121, AYRYVDWLLTV); assay: UV-vis; settings: room temperature; 0.3 M NaCl; 6-mix buffer (1.37 mM citric acid, 0.46 mM ADA, 1.04 mM MOPS, 1.25 mM TAPS, 0.81 mM CHES, 1.39 mM CAPS); pH adjusted with HCl or NaOH; unphotolyzed (dark) state, retinal-bound, in nanodisc
[2] = target: Asp97 (UniProt position 97, VFRYIDWLLTV); settings: monomeric proteorhodopsin; cited from earlier work
[3] = target: T1, Asp121; settings: DDM-solubilized, monomeric; cited from earlier work
[4] = target: the molecule itself; assay: sucrose density gradient centrifugation + absorption spectra (MSP amount per GR from A280); higher-density nanodisc band NDH, reconstituted at pH 5.5, separated on a 10-40% sucrose gradient; spectra in 6-mix buffer, pH 7, 0.3 M NaCl, set to the same peak at about 540 nm

**Q.** For “Gloeobacter rhodopsin (GR), wild type, trimer in nanodisc (NDH) (Gloeobacter violaceus)”, which pKa [1] is on record?
**A.** The pKa was 4.52.

**Q.** For “Proteorhodopsin (PR), monomeric (uncultured marine gamma-proteobacterium (the article says only that the gene came from a DNA fragment of gamma-proteobacteria))”, which pKa [2] is on record?
**A.** Its pKa is 7.5–7.7.

**Q.** Which pKa [1] does the source give for “Gloeobacter rhodopsin (GR), wild type, monomer in nanodisc (NDL) (Gloeobacter violaceus)” here?
**A.** Its pKa is 7.41.

**Q.** For “Gloeobacter rhodopsin H87M, monomer in nanodisc (Gloeobacter violaceus; H87M)”, which pKa [1] is on record?
**A.** The pKa was “approximately 3.72”.

**Q.** For “Gloeobacter rhodopsin H87M, DDM-solubilized (Gloeobacter violaceus; H87M)”, which pKa [3] is on record?
**A.** Its pKa is “approximately 4”.

B1: Gloeobacter rhodopsin (GR), wild type, C-terminal His-tagged (natural protein, Gloeobacter violaceus, UniProt Q7NP59 1-298, looked up)
chain: MLMTVFSSAPELALLGSTFAQVDPSNLSVSDSLTYGQFNLVYNAFSFAIAAMFASALFFFSAQALVGQRYRLALLVSAIVVSIAGYHYFRIFNSWDAAYVLENGVYSLTSEKFNDAYRYVDWLLTVPLLLVETVAVLTLPAKEARPLLIKLTVASVLMIATGYPGEISDDITTRIIWGTVSTIPFAYILYVLWVELSRSLVRQPAAVQTLVRNMRWLLLLSWGVYPIAYLLPMLGVSGTSAAVGVQVGYTIADVLAKPVFGLLVFAIALVKTKADQESSEPHAAIGAAANKSGGSLIS
modifications: retinal bound by a protonated Schiff base linkage (residue not given)
notes: Gloeobacter rhodopsin, H+ pump from the cyanobacterium Gloeobacter violaceus; The same protein was trapped as a trimer (nanodisc band NDH) and as a monomer (nanodisc band NDL) after reconstitution at pH 5.5; also called wild-type GR; trimeric GR (in NDH); source: E. coli BL21(DE3), solubilized with DDM, purified (Ni-NTA agarose); reconstituted into MSP1E3D1/POPC nanodiscs or kept in DDM
**Q.** Which results are given for B1?
**A.** MSP amount per GR, NDL against NDH [4]: 3.3 fold; stoichiometry N [4]: 3
